In patent US20040204348A1 (ANGSTROM PHARMACEUTICALS, published 2004) one finds IC50 and Kd data, which are given here for 6 molecules.

Bridges are numbered along the chain shown (N, C = ends). L10 (R1 : -NH-m-phenylene-NH2) = linker L10: -CO-CH2-NH-CO-CH2-CH2-CH(CO-NH-CH2-COR1)-NH- with R1 = -NH-m-phenylene-NH2; L10 (R1 : -NH-o-phenylene-NH2) = linker L10: -CO-CH2-NH-CO-CH2-CH2-CH(CO-NH-CH2-COR1)-NH- with R1 = -NH-o-phenylene-NH2; L10 (R1 : -NH-p-phenylene-NH2) = linker L10: -CO-CH2-NH-CO-CH2-CH2-CH(CO-NH-CH2-COR1)-NH- with R1 = -NH-p-phenylene-NH2; L15 (R1 : phenyl) = linker L15: -CO-CH2-NH-CO-CH2-CH2-CH(CO-NH-CH2-CO-NH-R1)-NH- with R1 = phenyl (anilide)

Sequences and labels used below:
B1: biotin-modified-RTLPPD (peptide)
peptide: VSNKYFSNIHW
modifications: linker N-C via L10 (R1 : -NH-p-phenylene-NH2); also: biotin-X (7-atom spacer) label, site not given here
notes: RTLPPD reacted with Biotin-X-sulfoNHS
B2: receptor targeting ligand-p-phenylenediamine derivative (RTLPPD) (peptide)
peptide: VSNKYFSNIHW
modifications: linker N-C via L10 (R1 : -NH-p-phenylene-NH2); also: cyclised by linker L10 between X1 N and X11 carbonyl
B3: RTLOPD (peptide)
peptide: VSNKYFSNIHW
modifications: linker N-C via L10 (R1 : -NH-o-phenylene-NH2); also: cyclised by linker L10 between X1 N and X11 carbonyl
notes: also called isomer of RTLPPD incorporating o-phenylenediamine (OPD)
B4: RTLMPD (peptide)
peptide: VSNKYFSNIHW
modifications: linker N-C via L10 (R1 : -NH-m-phenylene-NH2); also: cyclised by linker L10 between X1 N and X11 carbonyl
notes: also called isomer of RTLPPD incorporating m-phenylenediamine (MPD)
B5: Oregon Green-modified-RTLPPD (peptide)
peptide: VSNKYFSNIHW
modifications: linker N-C via L10 (R1 : -NH-p-phenylene-NH2); also: Oregon Green (5/6-isomer mix) label, site not certain (intended on phenylenediamine amine)
notes: RTLPPD reacted with Oregon Green isothiocyanate; also called Oregon Green-labeled-RTLPPD
B6: Å36 (peptide)
peptide: VSNKYFSNIHW
modifications: linker N-C via L15 (R1 : phenyl); also: cyclised by linker L15 between X1 N and X11 carbonyl
notes: also called A36; cyclic peptide Å36

T1 sequence (Q03405 23-305): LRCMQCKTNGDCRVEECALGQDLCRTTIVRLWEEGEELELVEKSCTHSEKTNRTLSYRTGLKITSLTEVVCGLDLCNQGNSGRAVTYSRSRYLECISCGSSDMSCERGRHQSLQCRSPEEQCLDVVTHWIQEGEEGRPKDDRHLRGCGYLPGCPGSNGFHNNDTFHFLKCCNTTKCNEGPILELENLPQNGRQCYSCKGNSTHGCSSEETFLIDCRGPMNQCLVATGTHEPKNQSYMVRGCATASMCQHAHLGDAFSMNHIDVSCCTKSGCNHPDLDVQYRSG

The first test addresses T1, uPAR expressed on cells (RKO human colon carcinoma cells, HeLa cells, stimulated HUVEC) (human, UniProt Q03405 23-305).
T1 construct: whole, on cells; GPI-anchored receptor on whole cells
Kind of test: competition with 0.2 nM [125I]DFP-uPA on RKO cells, 4 C. As to the method:
The compounds of the invention were tested for their binding to uPAR by measuring their ability to inhibit the binding of [¹²⁵I]DFP-uPA (catalytically inactivated high molecular weight uPA) to uPAR expressed by RKO (human colon carcinoma) cells. Cells (about 5×10⁴/well) were plated (in MEM with Earle's salts/10% FBS+antibiotics) in 24-well plates, then incubated in a humid 5% CO₂ atmosphere until the cells reach 70% confluence. Catalytically inactivated high molecular weight uPA (DFP-uPA) was radioiodinated using Iodo-gen® (Pierce) to a specific activity of about 250,000 cpm/mg. The cell-containing plates were then chilled on ice and the cells were washed twice (5 minutes each) with cold PBS/0.05% Tween-80. Test compounds were serially diluted in cold PBS/0.1% BSA/0.01% Tween-80 and added to each well to a final volume of 0.3 mL 10 minutes prior to the addition of the [¹²⁵I]DFP-uPA. Each well then receives 9500 cpm of [¹²⁵I]DFP-uPA at a final concentration of 0.2 nM. The plates were incubated at 4° C. for 2 hrs, after which time the cells were washed 3× (5 minutes each) with cold PBS/0.05% Tween-80. NaOH (1N; 0.5 mL) was added to each well to lyse the cells, the contents of each well were aspirated and the total counts in each well determined using a gamma counter. Each compound was tested in triplicate and the results are expressed as a percentage of the total radioactivity measured in wells containing [¹²⁵I]DFP-uPA alone, which is taken to represent maximum (100%) binding.
RTLPPD inhibited the binding of [¹²⁵I]DFP-uPA with an IC₅₀ of approximately 5 nM (FIG. 3). Modification of RTLPPD with Oregon Green shifted the IC₅₀ to approximately 800 nM (FIG. 3) and modification with biotin shifted the IC₅₀ to approximately 1.1 μM (FIG. 4). RTLMPD and RTLOPD inhibited the binding of [¹²⁵I]DFP-uPA to RKO cells with an IC₅₀ of approximately 50 and 100 nM , respectively (FIG. 3).
What is called IC50 is the point on the concentration scale where inhibition reaches its midpoint. The low end stands for greater potency in that assay, the high end for weaker potency in that assay. Take B1: the IC50 was approximately 1100 nM. The same measure, in the same setting: the same measure for B2: approximately 5 nM. The same measure, in the same setting: the same measure for B3: approximately 100 nM. Same read-out and setting: the same measure for B4: approximately 50 nM. With B5, the IC50 is approximately 800 nM.

The target of another test is T1, uPAR expressed on cells (RKO human …). Kind of test: whole-cell competition with [125I]DFP-uPA on HeLa cells, as the method is described; competition for binding to HeLa cells, not BIAcor. Here is the method:
HeLa cells (about 5×10⁴/well) were plated in medium MEM with Earle's salts/10% FBS+antibiotics) in 24-well plates, then incubated in a humid 5% CO₂ atmosphere until the cells reached 70% confluence. Catalytically inactivated high molecular weight uPA (DFP-uPA) labeled with radioactive ¹²⁵I (specific activity 250,000 cpm/mg) served as the uPAR label. Plates in which the cells were incubated were chilled on ice and the cells were washed twice (5 minutes each) with cold PBS/0.05% Tween-80. DFP-UPA and Å36 were serially diluted in cold PBS/0.1% BSA/0.01% Tween-80 and added to each well to a final volume of 0.3 mL 10 minutes prior to the addition of [¹²⁵I]DFP-UPA. Each well then received 9500 cpm of [¹²⁵I]DFP-UPA at a final concentration of 0.2 nM). The plates were incubated at 4° C. for 2 hrs, after which the cells are washed 3× (5 minutes each) with cold PBS/0.05% Tween-80. Cells were lysed by addition of NaOH (1N) 0.5 mL/well for 5 minutes at room temperature or until all the cells in each well were lysed by microscopic examination. The contents of each well were aspirated, and the total counts in each well were determined using a gamma counter. Each compound was tested in triplicate and the results were expressed as a percentage of the total radioactivity measured in wells containing [¹²⁵I]DFP-uPA alone, which is taken to represent maximum (100%) binding.
One may read the Kd as the equilibrium constant for the complex coming apart. Low readings indicate a tighter complex, high ones a looser complex. Consider B6, for which the Kd came to 30 nM.
